The source of these data is patent US7163817.

Data set [1] has as its target T1, native SK from Streptococcus sp. (ATCC 12449).
T1 chain: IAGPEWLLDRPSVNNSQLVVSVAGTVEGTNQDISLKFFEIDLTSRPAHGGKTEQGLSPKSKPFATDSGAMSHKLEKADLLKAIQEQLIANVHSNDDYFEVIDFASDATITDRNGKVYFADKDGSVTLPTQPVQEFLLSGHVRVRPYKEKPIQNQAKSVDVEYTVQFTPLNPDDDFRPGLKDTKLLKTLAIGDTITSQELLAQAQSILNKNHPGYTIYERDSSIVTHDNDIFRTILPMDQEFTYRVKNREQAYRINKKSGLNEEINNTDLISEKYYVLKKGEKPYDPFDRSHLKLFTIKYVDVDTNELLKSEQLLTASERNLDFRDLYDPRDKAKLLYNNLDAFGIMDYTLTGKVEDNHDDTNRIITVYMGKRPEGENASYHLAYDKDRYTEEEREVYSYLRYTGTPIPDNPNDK

Data set [2] has as its target FBD(4,5)-SK-FBD(4,5) chimeric protein.
In data set [3] the target is FBD(4,5)-SK chimeric protein.
Data set [4] addresses T2, SK-FBD(1,2) chimeric protein.
T2 chain: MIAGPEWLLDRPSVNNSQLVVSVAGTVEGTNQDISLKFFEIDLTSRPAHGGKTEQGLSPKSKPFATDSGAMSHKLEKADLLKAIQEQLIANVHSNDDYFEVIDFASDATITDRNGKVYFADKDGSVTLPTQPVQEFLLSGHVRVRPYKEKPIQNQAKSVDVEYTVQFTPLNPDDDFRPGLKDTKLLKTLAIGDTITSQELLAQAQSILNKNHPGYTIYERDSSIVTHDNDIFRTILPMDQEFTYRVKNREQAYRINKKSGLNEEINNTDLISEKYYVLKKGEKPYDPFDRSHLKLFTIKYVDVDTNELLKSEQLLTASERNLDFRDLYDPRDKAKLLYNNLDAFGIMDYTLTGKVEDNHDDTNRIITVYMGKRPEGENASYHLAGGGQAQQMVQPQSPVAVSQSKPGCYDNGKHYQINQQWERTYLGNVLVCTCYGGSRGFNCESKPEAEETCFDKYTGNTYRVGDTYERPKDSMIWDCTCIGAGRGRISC

Data set [5] concerns the target T3, Met-SK (recombinant SK purified from E. coli).
T3 chain: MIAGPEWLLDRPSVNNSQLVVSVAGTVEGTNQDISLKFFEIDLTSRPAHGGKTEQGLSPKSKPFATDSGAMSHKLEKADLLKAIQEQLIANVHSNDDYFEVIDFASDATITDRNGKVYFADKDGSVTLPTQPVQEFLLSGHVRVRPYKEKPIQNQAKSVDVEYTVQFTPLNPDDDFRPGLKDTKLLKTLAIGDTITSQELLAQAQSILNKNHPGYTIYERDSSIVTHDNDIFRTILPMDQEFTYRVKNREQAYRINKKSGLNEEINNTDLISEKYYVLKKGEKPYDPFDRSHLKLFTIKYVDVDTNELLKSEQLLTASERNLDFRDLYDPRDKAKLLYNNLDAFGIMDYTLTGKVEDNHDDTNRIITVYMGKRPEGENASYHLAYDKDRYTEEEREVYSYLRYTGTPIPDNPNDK

The target in data set [6] is SK-FBD(4,5) chimeric protein, SK[residues 1-383]-(gly-gly-gly)-[FBD(4,5)].

B1: human plasminogen (protein)
chain: EPLDDYVNTQGASLFSVTKKQLGAGSIEECAAKCEEDEEFTCRAFQYHSKEQQCVIMAENRKSSIIIRMRDVVLFEKKVYLSECKTGNGKNYRGTMSKTKNGITCQKWSSTSPHRPRFSPATHPSEGLEENYCRNPDNDPQGPWCYTTDPEKRYDYCDILECEEECMHCSGENYDGKISKTMSGLECQAWDSQSPHAHGYIPSKFPNKNLKKNYCRNPDRELRPWCFTTDPNKRWELCDIPRCTTPPPSSGPTYQCLKGTGENYRGNVAVTVSGHTCQHWSAQTPHTHNRTPENFPCKNLDENYCRNPDGKRAPWCHTTNSQVRWEYCKIPSCDSSPVSTEQLAPTAPPELTPVVQDCYHGDGQSYRGTSSTTTTGKKCQSWSSMTPHRHQKTPENYPNAGLTMNYCRNPDADKGPWCFTTDPSVRWEYCNLKKCSGTEASVVAPPPVVLLPDVETPSEEDCMFGNGKGYRGKRATTVTGTPCQDWAAQEPHRHSIFTPETNPRAGLEKNYCRNPDGDVGGPWCYTTNPRKLYDYCDVPQCAAPSFDCGKPQVEPKKCPGRVVGGCVAHPHSWPWQVSLRTRFGMHFCGGTLISPEWVLTAAHCLEKSPRPSSYKVILGAHQEVNLEPHVQEIEVSRLFLEPTRKDIALLKLSSPAVITDKVIPACLPSPNYVVADRTECFITGWGETQGTFGAGLLKEAQLPVIENKVCNRYEFLNGRVQSTELCAGHLAGGTDSCQGDSGGPLVCFEKDKYILQGVTSWGLGCARPNKPGVYVRVSRFVTWIEGVMRNN
As for B1, the Kplg (Km for HPG), steady-state HPG activation, chromogenic one-stage assay was 0.14 µM in data set [1] and 0.18 µM in data set [5]. The Kplg (Km for HPG), steady-state HPG activation, chromogenic one-stage assay, linear phase after the lag turned out to be 0.2 µM in data set [2], 0.16 µM in data set [3], 0.18 µM in data set [4] and 0.15 µM in data set [6].
